Read-outs that look alike come from different tables or passages of the source.
Key:
[1] = target: Fcγ fragment of human IgG (human); experiment: BLI, Ni-NTA sensor, SpA immobilised, Fc fragment of human IgG in solution
[2] = target: F(ab)2 fragment of human IgG (human)
[3] = target: Fcγ fragment of human IgG (human)

Substance	Ka [1] [M⁻¹]	human IgE affinity (human IgE)	Ka [2] [M⁻¹]	Ka [3] [M⁻¹]
SpA (wild-type protein A, recombinant five IgBDs) (from UniProt P02976 37-327)	5.17e+07			
SpAQ9,10K/G29F/D36,37A (from UniProt P02976 37-327)		2.02e-05		
SpAQ9,10K/S33E (from UniProt P02976 37-327)			41.2	32.7
SpAQ9,10K/S33T (from UniProt P02976 37-327)			43.5	39.9

Source: patent publication US20220323563A1
